Data: publication PMC4705653

Tests used:
[1] = biological target: GST-Mcm10 (budding yeast) (UniProt P32354); test: pull-down; 30 pmol GST-tagged protein on Glutathione Sepharose, varying concentrations of 32P-labelled PKA-tagged protein in solution; GST binding buffer (40 mM Tris–HCl pH 7.5, 100 mM NaCl, 0.1 mM EDTA, 10% glycerol, 0.1% Triton X-100, 1 mM DTT, 0.1 mg/ml BSA), 100 μl, 30°C, 10 min; SDS-PAGE and phosphorimaging; in some panels with 5 mM ATP or ATPγS, or with a third labelled protein (Mcm10, Sld3) added
Sld3 = Sld3 (UniProt P53135); test: anti-Mcm2 co-IP, Sld3 blot; conditions: reference: wild-type mcm2; sites S164,S170

GST-Mcm10 (budding yeast), sequence (P32354 whole entry): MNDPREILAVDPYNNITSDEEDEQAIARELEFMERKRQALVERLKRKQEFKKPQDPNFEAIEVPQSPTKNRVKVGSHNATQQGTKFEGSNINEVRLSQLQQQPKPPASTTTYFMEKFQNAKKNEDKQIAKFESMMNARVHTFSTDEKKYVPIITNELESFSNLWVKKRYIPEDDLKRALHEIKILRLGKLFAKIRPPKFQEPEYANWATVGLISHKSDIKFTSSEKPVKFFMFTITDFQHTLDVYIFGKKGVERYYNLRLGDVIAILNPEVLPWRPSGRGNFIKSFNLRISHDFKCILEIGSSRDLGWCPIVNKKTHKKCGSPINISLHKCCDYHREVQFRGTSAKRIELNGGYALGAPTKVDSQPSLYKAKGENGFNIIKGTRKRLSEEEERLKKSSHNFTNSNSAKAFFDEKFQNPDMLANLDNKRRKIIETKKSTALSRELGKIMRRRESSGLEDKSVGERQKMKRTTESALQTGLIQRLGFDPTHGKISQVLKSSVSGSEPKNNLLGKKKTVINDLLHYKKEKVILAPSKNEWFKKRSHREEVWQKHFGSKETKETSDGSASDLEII

Q: “PKA-Mcm2–7 complex (radiolabeled, wild type), P29469 1-868; P24279 1-971; P30665 1-933; P29496 1-775; P53091 1-1017; P38132 1-845” was tested. Which signal relative to GST alone [1] did it give?
A: > 10 times

Q: “Mcm2 (from UniProt P29469) mcm2-2A (S164A S170A)” was tested. Which “binding against the reference” value (Sld3) did it give?
A: lost
